In one experiment the target is T1, wild-type human PTHR (human, UniProt Q03431 27-593).
T1 construct: whole, on cells; also called PTHR-WT; intact PTHR
T1 sequence (looked up): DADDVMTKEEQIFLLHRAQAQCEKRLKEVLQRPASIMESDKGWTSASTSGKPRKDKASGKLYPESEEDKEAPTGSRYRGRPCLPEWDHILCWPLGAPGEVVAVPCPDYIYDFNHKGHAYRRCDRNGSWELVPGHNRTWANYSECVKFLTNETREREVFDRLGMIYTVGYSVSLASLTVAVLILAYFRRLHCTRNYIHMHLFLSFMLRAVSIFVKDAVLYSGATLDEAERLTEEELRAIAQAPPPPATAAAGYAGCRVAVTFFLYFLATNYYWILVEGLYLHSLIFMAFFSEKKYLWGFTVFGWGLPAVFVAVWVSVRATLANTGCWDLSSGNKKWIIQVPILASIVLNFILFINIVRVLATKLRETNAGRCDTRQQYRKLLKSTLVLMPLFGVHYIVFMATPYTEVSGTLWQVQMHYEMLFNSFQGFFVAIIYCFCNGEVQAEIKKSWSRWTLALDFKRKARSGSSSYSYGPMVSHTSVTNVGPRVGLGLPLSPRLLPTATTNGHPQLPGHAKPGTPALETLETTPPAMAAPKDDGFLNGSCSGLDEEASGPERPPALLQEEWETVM
In words: competition binding, HKRK-B7 cells, 125I-PTH(1-34) tracer. The method in brief:
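Intact HKRK-B7 cells stably expressing hPTHR incubated 4 h at 15° C with ¹²⁵I-PTH(1-34) tracer and unlabeled peptide (3×10⁻⁹ to 1×10⁻⁵ M). Nonspecific binding defined with 1×10⁻⁶ M PTH(1-31)NH₂. Bound activity counted after lysis and expressed as % specific binding without competitor; values in nM, mean ± s.e.m.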

Experiment [1] has as its target PTHR-delNt (human) (UniProt Q03431). In words: competition binding, COS-7 membranes, 125I-[Aib1,3,M]PTH(1-15) tracer.
Experiment [2] shares this target. The experiment is described as above. The source holds these as a separate data set.

Like-named read-outs stand apart in the source and are kept apart here. Where no end group is shown, it is not given here.

B1: [Ala^1,Arg^19]hPTH(1-31)NH2 Arg^19→Glu (peptide)
peptide: AVSEIQLMHNLGKHLNSMERVEWLRKKLQDV-NH2
Broadly, the IC50 is the concentration that gives 50% inhibition. Low readings indicate greater potency, high ones weaker potency. As to B1, the IC50 in the experiment with wild-type human PTHR was 0.125 µM; with PTHR-delNt (human) [1], 18.9 µM. The results for the fold reduction in binding affinity vs [Ala^1,Arg^19]PTH(1-31)NH2 in the experiment with PTHR-delNt (human) [1] and with PTHR-delNt (human) [2] were 50 fold and 90 fold, respectively.
